The source of these data is paper doi:10.1101/2023.11.17.567387.

For orientation: stoichiometry N means the number of molecules, sites or subunits per partner or assembly.

The target in this experiment is C. elegans DPF-3 (C. elegans). Briefly: cryo-EM structure.

On to C. elegans DPF-3 (enzyme), for which the stoichiometry N was 2.
